{
  "source": "paper PMC11381544",
  "about": "(Nature Communications, 2024)",
  "binders": {"B1": {"name": "human prolyl 3-hydroxylase 1 (P3H1) (enzyme, UniProt Q32P28-1 23-736, looked up)", "chain": "EVESEAGWGMVTPDLLFAEGTAAYARGDWPGVVLSMERALRSRAALRALRLRCRTQCAADFPWELDPDWSPSPAQASGAAALRDLSFFGGLLRRAACLRRCLGPPAAHSLSEEMELEFRKRSPYNYLQVAYFKINKLEKAVAAAHTFFVGNPEHMEMQQNLDYYQTMSGVKEADFKDLETQPHMQEFRLGVRLYSEEQPQEAVPHLEAALQEYFVAYEECRALCEGPYDYDGYNYLEYNADLFQAITDHYIQVLNCKQNCVTELASHPSREKPFEDFLPSHYNYLQFAYYNIGNYTQAVECAKTYLLFFPNDEVMNQNLAYYAAMLGEEHTRSIGPRESAKEYRQRSLLEKELLFFAYDVFGIPFVDPDSWTPEEVIPKRLQEKQKSERETAVRISQEIGNLMKEIETLVEEKTKESLDVSRLTREGGPLLYEGISLTMNSKLLNGSQRVVMDGVISDHECQELQRLTNVAATSGDGYRGQTSPHTPNEKFYGVTVFKALKLGQEGKVPLQSAHLYYNVTEKVRRIMESYFRLDTPLYFSYSHLVCRTAIEEVQAERKDDSHPVHVDNCILNAETLVCVKEPPAYTFRDYSAILYLNGDFDGGNFYFTELDAKTVTAEVQPQCGRAVGFSSGTENPHGVKAVTRGQRCAIALWFTLDPRHSERDRVQADDLVKMLFSPEEMDLSQEQPLDAQQGPPEPAQESLSGSESKPKDEL"}, "B2": {"name": "PCP complex with mutation W675L of P3H1 (complex)", "chain 1": "B1 chain with W653L", "chain 2": "QYERYSFRSFPRDELMPLESAYRHALDKYSGEHWAESVGYLEISLRLHRLLRDSEAFCHRNCSAAPQPEPAAGLASYPELRLFGGLLRRAHCLKRCKQGLPAFRQSQPSREVLADFQRREPYKFLQFAYFKANNLPKAIAAAHTFLLKHPDDEMMKRNMAYYKSLPGAEDYIKDLETKSYESLFIRAVRAYNGENWRTSITDMELALPDFFKAFYECLAACEGSREIKDFKDFYLSIADHYVEVLECKIQCEENLTPVIGGYPVEKFVATMYHYLQFAYYKLNDLKNAAPCAVSYLLFDQNDKVMQQNLVYYQYHRDTWGLSDEHFQPRPEAVQFFNVTTLQKELYDFAKENIMDDDEGEVVEYVDDLLELEETS", "chain 3": "not shown"}, "B3": {"name": "human cartilage-associated protein (CRTAP), strep-tagged (natural protein, UniProt O75718 27-401, looked up)", "chain": "B2 chain 2"}, "B4": {"name": "human peptidyl-prolyl cis-trans isomerase B (PPIB), flag-tagged (enzyme)", "chain": "not shown"}},
  "key": {"[1]": {"biological_target": "B3", "experiment": "cryo-EM structure"}, "[2]": {"biological_target": "the molecule itself", "experiment": "SEC"}, "[3]": {"biological_target": "B1", "experiment": "cryo-EM structure"}},
  "note": "Substitutions are numbered along the chain they refer to. Names and notes keep the numbering of the source.",
  "data": [
    {"binder": "B1", "values": [
      {"measurement": "stoichiometry N", "setting": "[1]", "value": 1}
    ]},
    {"binder": "B2", "values": [
      {"measurement": "binding result", "setting": "[2]", "value": "binds"}
    ]},
    {"binder": "B3", "values": [
      {"measurement": "binding result", "setting": "[3]", "value": "binds"}
    ]},
    {"binder": "B4", "values": [
      {"measurement": "stoichiometry N", "setting": "[3]", "value": 1},
      {"measurement": "stoichiometry N", "setting": "[1]", "value": 1}
    ]}
  ]
}
